In patent publication US20090291088A1, “THERAPEUTIC COMBINATIONS OF ANTI-IGF-1R ANTIBODIES AND OTHER COMPOUNDS” (Biogen Idec MA Inc., priority 2008, published 2009):

B1: M14-C03.G4.P: full-length human IgG4.P version of Fab M14-C03 (antibody, V domains shown)
VH: EVQLLESGGGLVQPGGSLRLSCAASGFTFSKYMMSWVRQAPGKGLEWVSYISPSGGLTWYADSVKGRFTISRDNSKNTLYLQMNSLRAEDTAVYYCARDGARGYGMDVWGQGTTVTVSS
VL: DIQMTQSPATLSLSPGERATLSCRASQSVSSYLAWYQQKPGQAPRLLIYDASNRATGIPARFSGSGSGTDFTLTISSLEPEDFAVYYCQQRSNWPPEVTFGPGTKVDIK
B2: Fab M14-B01: human anti-human IGF-1R Fab from phage display library; VH SEQ ID NO:20, VL SEQ ID NO:83 (antibody, V domains shown)
VH: EVQLLESGGGLVQPGGSLRLSCAASGFTFSNYHMAWVRQAPGKGLEWVSVISPTGGRTTYADSVKGRFTISRDNSKNTLYLQMNSLRAEDTATYYCARAGYSYGYGYFDYWGQGTLVTVSS
VL: DIQMTQFPATLSVSPGERATLSCRASQSVMRNLAWYQQKPGQPPRLLIYGASKRATGIPARFSGSGSGTAFTLTISNLEPEDFAVYYCHQRSTWPLGTFGPGTKLEAK
modifications: Antibody variable heavy chain sequence; Antibody variable light chain sequence
B3: M12-G04.G4.P: full-length human IgG4.P version of Fab M12-G04 (antibody, V domains shown)
VH: EVQLLESGGGLVQPGGSLRLSCAASGFTFSKYTMHWVRQAPGKGLEWVSSIVSSGGWTDYADSVKGRFTISRDNSKNTLYLQMNSLRAEDTAVYYCARDRSIAAAGTGWSVSFVDWFDPWGQGTLVTVSS
VL: DIQMTQSPLSLSASVGDRVTITCRASQSINGYLNWYQQKPGKAPNLLIYATSSLQSGVPSRFSGSGSGTDFTLTISSLQPEDFATYYCQQSYSTPPYTFGQGTKLEIK
B4: Fab M12-G04: human anti-human IGF-1R Fab from phage display library; VH SEQ ID NO:9, VL SEQ ID NO:73 (antibody, V domains shown)
VH: B3 VH
VL: B3 VL
modifications: Antibody variable heavy chain sequence; Antibody variable light chain sequence
B5: M12-E01.G4.P: full-length human IgG4.P version of Fab M12-E01 (antibody, V domains shown)
VH: EVQLLESGGGLVQPGGSLRLSCAASGFTFSPYSMLWVRQAPGKGLEWVSSIGSSGGSTRYADSVKGRFTISRDNSKNTLYLQMNSLRAEDTAMYYCARVRGILHYDILIGRNLYYYYMDVWGKGTTVTVSS
VL: QYELTQPPSVSEAPRQRVTISCSGSSSNIGNNAINWYQQLPGKPPKLLIYYDDLLPSGVSDRFSGSKSGTSGSLAISGLQSEDEADYYCAAWDDNLNGVIFGGGTKLTVL

How the values were obtained:
[1] = target: T1, IGF-1R (Homo sapiens, UniProt P08069); assay: Ligand blocking assay (RIA): 125I-IGF-1 / 125I-IGF-2 binding to immobilized IGF-1R; settings: for blocking of IGF-1 and IGF-2 binding to IGF-1R: 100 nM-0.01 nM antibody, IGF-1R-Fc; for IGF Blocking IGF-1 / IGF Blocking IGF-2: Fabs; for IGF Blocking IGF-1: 125I-IGF-1; for IGF Blocking IGF-2: 125I-IGF-2
T1 construct: human IGF-1R(1-903)-Fc (denoted hIGF-1R-Fc, generated by Biogen Idec)
Text: Ligand blocking assay (RIA). […] Insulin (Arg-Insulin, Cat #01-207) was purchased from Upstate Cell Signaling Solutions (Lake Placid, N.Y. (now part of Millipore, Concord, Mass. (USA)). ^125I-rhIGF-1 (Cat # IM172), ^125I-rhIGF-2 (Cat# IM238) and ^125I-rhInsulin (Cat# IM166) were purchased from Amersham Biosciences (Piscataway, N.J.). AffiPure goat anti-human IgG, Fcγ fragment specific antibodies (Cat #109-005-098, Jackson ImmunoResearch, West Grove, Pa.) was used for IGF-1R-Fc capture. As detection antibody, goat anti-mouse IgG HRP (Cat #1030-05, Southern Biotech Birmingham, Ala.) was used.
Human insulin receptor α-subunit specific antibodies, Clone 83-14, (Cat #AHR0221, Biosource International, Inc., Camarillo, Calif.) and the 47-9 (Cat #E55502M, Biodesign International, Saco, M E) were used as positive controls blocking of insulin-insulin receptor binding experiments. Recombinant IGF-1R-Fc fusion protein was produced at Biogen Idec (Cambridge, Mass.).
As isotype matched mouse negative control antibodies, 2B8 (murine α-CD20.1gG,) and 2B8 mkm.G2a (murine α-CD20 MAb, IgG2a, Biogen Idec, Lot #NB3304-87, San Diego, Calif.) were used. The negative control for Fabs was R001-1B provided by Christilyn Graff (Biogen Idec, Cambridge, Mass.). PBS used in buffers was from BioWhittaker (Cat. # 17-513F, Walkersville, Md.).
Recombinant human IGF-1R (Histidine tagged version) or IGF-1R-Fc was coated onto IMMULON2 HB (high binding) Removawell strips (Dynex Technologies, Inc., cat. #6302) diluted with carbonate coating buffer pH 9.5 to a concentration of 250 ng/well. After overnight incubation at 4° C., the wells were washed three times with washing buffer (0.05% Tween 20/PBS) then blocked with blocking buffer (3% BSA/PBS) for one hour at room temperature. The blocking buffer was removed and the wells washed three more times. Antibody, Fab, or ligand preparations were diluted to desired concentration with dilution buffer (1% BSA/0.05% Tween 20/PBS) and plated at 50 μl per well in duplicate. After 45 minutes at room temperature, 100,000 cpm of either [125I] rhIGF-1 or [125I] rhIGF-2 in 50 μl dilution buffer was added per well. This was incubated at room temperature for one more hour. The wells were washed again three more times and left liquid free after the last wash. The air-dried wells were counted with the Isodata Gamma Counter.
Alternatively, Fabs were evaluated by a modified capture assay, where the IGF-1R-Fc was captured using anti-human IgG immobilized to a plate. Immobilization was carried out by overnight incubation of goat anti-human IgG, Fcγ fragment specific antibody (200 ng/well) in carbonate coating buffer. The wells were washed, blocked and 250 ng of IGF-1R-Fc was added per well.
The ligand blocking ability of the anti-IGF-1R antibody was determined by a solid phase RIA capture method as described in Example 3. […] After 1 hour of incubation at room temperature, the wells were washed and counted for bound radioactivity by a Gamma Counter. An isotype matched negative antibody control, IDEC-151 (human G4), was used. Percent (%) inhibition was calculated as =[1−(Ave.CPM with Ab)/(Ave.CPM with buffer)]×100%.

[2] = target: T2, IGF-1R phosphorylation (Homo sapiens, UniProt P08069); assay: Inhibition of IGF-1 and IGF-2 mediated IGF-1R phosphorylation in MCF-7 cells (ELISA); format: cell-based; settings: Fabs, MCF-7; for Inhibition of IGF-1R Phosphorylation IGF-1: IGF-1 stimulated; for Inhibition of IGF-1R Phosphorylation IGF-2: IGF-2 stimulated
T2 construct: wild type IGF-1R expressed on MCF-7 tumor cells; endogenous in cells; host or cells: MCF-7
Procedure: Cell lines: IGF1R expressing human breast carcinoma cell line MCF-7 (NCI) were maintained at 37° C. and 5% CO2 in MEM eagle (ATCC) containing 10% FBS, 1× non-essential amino acids, 2 mM L-glutamine, 1 mM sodium pyruvate and 1000 U/ml penicillin and streptomycin. Cells were sub-cultured twice weekly for maintenance and assay, and used with a maximum of 12 passages.
MCF-7 cells were plated in 2 ml growth media at 2×10^5 to 4.0×10^5 cells/well in Ploy-D-Lysine coated 12 well plates (BD Biosciences, #35-6470) and cultured at 37° C., 5% CO2. At 48 hours, media removed and cells serum starved overnight at 37° C., 5% CO2 Serum free media was removed and control or test antibodies at indicated concentration were added in 350 ul of fresh serum free media and incubated for 1 hour at room temperature, or alternately at 37° C. Fabs were tested at 200 nM, 20 nM and 2 nM concentration and the mAbs were tested at 67, 6.7 and 0.67 nM. The commercial anti-IGF-1R control antibody used was αIR3 (EMD biosciences, Oncogene Research products, #D27249). […] Ligand was incubated at […] for 37° C. antibody experiments. Cells were lysed in 1× cell lysis buffer (Cell Signal Technologies, #9803) with 1 mM PMSF for 1 hour at room temperature.
Cell lysates were added to ELISA plates pre-coated with IGF-1Rp antibody (Clone 1-2, Biosource International, #AHR0361) and incubated for 2 hours. Following which plates were washed and the plate bound phosphorylated receptor was detected with the biotin labeled anti-phosphotyrosine antibody 4G10 (Catalog #16-103, Upstate Cell Signaling Solutions (Lake Placid, N.Y. (now part of Millipore, Concord, Mass. (USA)) and streptavidin-HRP (BD Pharmingen, #554066). Assay is developed by addition of TMB substrate (Kierkegaard & Perry, #50-76-00) and color stopped by addition of […] (LabChem, Cat#LC25830-1). Optical density is measured at 450 nm using a Molecular Devices plate reader and percent inhibition over the ligand control is calculated for each antibody-ligand sample.
The effect of human anti-IGF-1R antibodies on IGF-1R signaling was evaluated using MCF-7 cells (human breast adenocarcinoma cells).

Molecule | blocking of IGF-1 and IGF-2 binding to IGF-1R [1] | IGF Blocking IGF-1 [1] | IGF Blocking IGF-2 [1] | Inhibition of IGF-1R Phosphorylation IGF-1 [2] | Inhibition of IGF-1R Phosphorylation IGF-2 [2]
B1 | blocked only IGF-2 binding |  |  |  | 
B2 |  | ++ (>30%@1ug/ml) | ++ (>30%@1ug/ml) | ++ (>30%@1ug/ml) | ++ (>30%@1ug/ml)
B3 | block both IGF-1 and IGF-2 binding |  |  |  | 
B4 |  | + (>30%@10ug/ml) | + (>30%@10ug/ml) | + (>30%@10 ug/ml) | + (>30%@10 ug/ml)
B5 | block both IGF-1 and IGF-2 binding |  |  |  | 
